Assay results reported in patent US7871782B2, “Specific binding members against synaptophysin” (The University Court of the University of Aberdeen, priority 2004, dated 2011).

Experiments:
HSCs = experiment: Effect of scAb incubation on HSC viability (attachment, protein assay); format: cell-based, human; conditions: 3 hours incubation, 5 μg scAb or indicated chemical, FIG. 12
Procedure: Effect of scAb incubation on HSC viability. HSCs seeded into 24 well plates were incubated in 0.3 mls culture medium containing 5 μg scAb or the indicated-chemical. Cells were incubated for 3 hours prior to removal of medium and washing with 1×PBS. Attachment (as a measure of viability) was determined by a direct protein assay in the culture wells.

human HSCs [1] = experiment: Fluorescence microscopy without fixation: effect of peptides and monensin on FITC-C1-3 scAb binding; format: cell-based; conditions: monensin 2.5 and 15 μM; for effect on FITC-C1-3 association/binding to HSCs: added with 10 μg FITC-C1-3 scAb, peptides 0.25-25 nmoles, FIG. 13
Procedure: Effect of synaptophysin peptides and monensin on FITC-C1-3 scAb binding to human HSCs. Human HSCs seeded into 24 well plates were washed and incubated in 500 μl Hepes/HBSS per well for 1 hour containing either: 10 μg C1-3 scAb; 10 μg FITC-C1-3 scAb; 10 μg FITC-C1-3 scAb and 0.25 nmoles of the target peptide; 10 μg FITC-C1-3 scAb and 2.5 nmoles of the target peptide; 10 μg FITC-C1-3 scAb and 25 nmoles of the target peptide; 10 μg FITC-C1-3 scAb and 25 nmoles of the target peptide P1; 10 μg FITC-C1-3 scAb and 2.5 μM monensin; 10 μg FITC-C1-3 scAb and 15 μM monensin; 10 μg FITC-3A8 scAb (scAb raised to microcystin and not expected to bind to HSCs). Cells incubated with monensin were preincubated for 10 minutes. Just prior to addition of scAb, the medium was changed and cells were re-dosed with monensin. […] Bar=μm. Monen=monensin; P1=the […] peptide (SEQ ID NO 27); P2=the target peptide.
HSCs seeded into 24 well plates were washed with Hepes/HBSS and then incubated at 37° C. in 500 μl/well Hepes/HBSS containing 10 μg scAb with or without additional compounds. After 1 hour, the cells were washed 3 times with 500 μl Hepes/HBSS. Cells were analysed using an Axiovert 100 microscope (Zeiss, Germany) using filter set #9 (BP 450-490 nm; LP 515 nm).

[2] = test system: human hepatic stellate cells; experiment: Fluorescence microscopy of FITC-labelled scAb with cells; format: cell-based; conditions: 10 μg scAb, 1 h, room temperature
Procedure: (§1) FITC-C1-3 scAb was tested for its ability to interact with hepatic stellate cells in culture by fluorescence microscopy. Human hepatic stellate cells were seeded (1×10^3 cells per chamber) on chamber slides (Nunclon, Naperville) in complete medium prior to experimentation. Cells were washed twice in phosphate buffered saline (PBS) and incubated in 500 μl Hepes/HBSS buffer (0.14M NaCl, 5.4 mM KCl, 0.34 mM Na2HPO4, 0.94 mm KH2PO4, 5.6 mM glucose, 1 mM CaCl2, 6 mM HEPES, 4 mM NaHCO3 pH7.4) containing 10 μg scAb or FITC-C1-3 scAb for 1 h at room temperature in the dark. The cells were then washed in PBS and mounted with Vectashield mounting medium (Vector laboratories, Burlingame, Calif.) containing 4′,6′ diamindino-2 phenylindole (DAPI) to stain cell nuclei and coverslips applied. Florescence microscopy was carried out using a Zeiss Axeola II microscope with a Photometrics Sensis camera, and data captured using the Smart Capture programme. Human hepatocytes (UK Human Tissue Bank) were originally cultured in a collagen-coated 24 well plate (1×10^5/well) and maintained in William's medium E supplemented with 80 units/ml penicillin and 80 μg/ml streptomycin.

human hepatocytes = experiment: as above; format: cell-based
Procedure: as §1

HepG2 cells = experiment: Fluorescence binding to cells; format: cell-based
[3] = target: T1, synaptophysin in rat HSCs (Rattus norvegicus, UniProt P07825); experiment: Western analysis of cell extracts probed with C1-3 scAb; format: binding; conditions: rat HSC extract, FIG. 8
T1 construct: endogenous in cells; host or cells: rat hepatic stellate cells
T1 sequence (P07825 whole entry): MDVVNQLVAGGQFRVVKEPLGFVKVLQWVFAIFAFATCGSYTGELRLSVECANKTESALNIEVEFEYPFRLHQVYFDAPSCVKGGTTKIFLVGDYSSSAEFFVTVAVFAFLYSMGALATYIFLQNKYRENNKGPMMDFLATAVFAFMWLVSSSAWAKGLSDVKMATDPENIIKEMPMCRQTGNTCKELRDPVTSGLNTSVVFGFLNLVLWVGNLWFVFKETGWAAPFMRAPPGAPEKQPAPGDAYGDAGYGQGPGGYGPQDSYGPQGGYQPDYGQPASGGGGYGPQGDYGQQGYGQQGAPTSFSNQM
Procedure: (§2) Western blot showing the binding of C1-3 scAb to the target peptide. Cell extracts (5 μg/lane) were subjected to Western blotting and membranes probed with C1-3 scAb followed by incubation with HRP conjugated anti-human Cκ light chain antibody and detection using ECL reagent. rHSCs—rat hepatic stellate cells; hHSCs—human hepatic stellate cells (AH4=anonymous patient code); rHCs—rat hepatocytes; B13—rat pancreatic stem cell; B13-H—rat pancreatic stem cell after trans-differentiation into an hepatocyte.
(§3) Western blotting was performed essentially as described in Wright M. C. et al. Mol Pharmacol 1996; 50:856-63.

[4] = target: T2, synaptophysin in human HSCs (Homo sapiens, UniProt P08247); experiment: as above; format: binding; conditions: human HSC extract, FIG. 8
T2 construct: endogenous in cells; host or cells: human hepatic stellate cells (patient-derived, AH4)
T2 sequence (P08247 whole entry): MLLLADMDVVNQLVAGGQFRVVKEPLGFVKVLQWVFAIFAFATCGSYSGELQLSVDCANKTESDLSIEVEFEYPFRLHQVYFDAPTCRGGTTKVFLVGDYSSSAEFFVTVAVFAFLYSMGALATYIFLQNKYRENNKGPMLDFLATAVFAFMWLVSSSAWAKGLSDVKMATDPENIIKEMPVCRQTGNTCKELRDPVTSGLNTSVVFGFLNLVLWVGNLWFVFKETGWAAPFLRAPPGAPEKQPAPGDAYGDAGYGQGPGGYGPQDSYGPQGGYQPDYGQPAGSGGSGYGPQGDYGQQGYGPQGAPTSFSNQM
Procedure: as §2, §3

[5] = target: T3, peptide YPFRLHQVYFDAPSC (SEQ ID NO 9) (Homo sapiens, UniProt P08247); experiment: Expressed purified anti-peptide scAb ELISA; format: binding
T3 construct: host or cells: chemical synthesis (Fmoc), no expression host
Procedure: Expressed scAb was tested for its ability to interact with the peptide […] (SEQ ID NO: 9) by ELISA using anti-BSA-target peptide scAb. Wells of a 96 well plate were coated with BSA-target peptide or BSA and incubated with either C1-3 scAb (grey bars) or control scAb incubation buffer (clear bars) followed by extensive washing. Bound scAb was detected using the HRP conjugated anti-human Cκ light chain antibody and quantitated as outlined in methods section. Data are the mean and standard deviation of 3 separate determinations. ‘BSA-peptide 2’ is the target peptide.
(§4) Purified polyclonal phage enriched for binders to peptides were assayed by ELISA using flat bottomed 96-well Immulon-4 microtitre plates (Dynex, Sussex, UK) coated with 2 μg/well protein (peptide-BSA or BSA) in PBS overnight at 4° C. Bound phage were detected by incubation with 100 μl/well horseradish peroxidase (HRP) conjugated anti-M13 antibody (AmershamPharmacia) for 1 h, washing, and incubation with 100 μl/well tetramethylbenzidine dihydrochloride solution (KPL Laboratories, Gaithersburg, Md.). Reactions were stopped with 50 μl/well 1M H2SO4, and the absorbance at 450 nm read using a microtitre plate reader.
Expressed scAb was tested for its ability to interact with peptide by ELISA essentially as outlined for polyclonal anti-peptide phage-antibody ELISAs. […]

COS-7 cells = experiment: Fluorescence binding to cells; format: cell-based
human HSCs [6] = experiment: Uptake of scAb and conjugates by human HSCs in culture (Western blot of medium); format: cell-based; conditions: 5 μg scAb in 0.3 mls medium, FIG. 11
Procedure: Uptake of C1-3 scAb and C1-3-conjugates by human HSCs in culture. HSCs seeded into 24 well plates were incubated in 0.3 mls culture medium containing 5 μg scAb. Samples of medium were taken at the indicated times and subjected to Western blotting to detect scAb using HRP-conjugated anti-human Cκ light chain antibody (UPPER PANEL) and serum albumin (LOWER PANEL) as a loading control. Results typical of 4 separate experiments.

[7] = test system: hepatic stellate cell and hepatocytes co-cultured; format: cell-based, human
Procedure: For co-culture experiments, hepatic stellate cells were seeded into hepatocytes cultures (1×10^3 cells per well) and cultured for 24 h prior to experimentation. The C1-3 or FITC-C1-3 scAb was incubated as outlined for pure hepatic stellate cell cultures except that after 1 hour incubation and washing, the cells were harvested by trypsinisation and centrifugation at 1000 rpm for 5 min. The cell pellet was then resuspended in 0.4% formaldehyde/10^6 cells, applied onto glass slides by cytocentrifugation and mounted with Vectashield containing DAPI. Slides were viewed by fluorescence microscopy as before.

target peptide-BSA = target: T4, target peptide-BSA (Homo sapiens, UniProt P08247); experiment: Monoclonal phage-antibody ELISA; format: binding; conditions: FIG. 3
T4 construct: host or cells: chemical synthesis (Fmoc), no expression host
Procedure: C1-phage antibody clone (monoclonal) assayed for binding to the target peptide-BSA as outlined for FIG. 2.
as §4
Individual colonies from pan 3 were grown in 96 well plates (Greiner) and phage-antibodies rescued with M13 KO7.
Specificity of phage supernatants for binding to peptide-BSA and BSA alone was determined by ELISA. The scFv encoding regions of positive clones were subcloned in to the expression vector pIMS147. This is a modification of the IPTG (isopropyl-β-D-thiogalactopyranoside) inducible pUC based vector pIMS100 (Hayhurst A. et al. Protein Expr Purif 1999; 15:336-43). The addition of a hexa-histadine tag permits purification of the expressed scAb by immobilised metal ion chelate affinity chromatography. Vectors were transformed into E. coli TG1 or XL1 blue cells.

CN(C)CCCN1c2ccccc2Sc2ccc(Cl)cc21 [chlorpromazine]
toxicity to HSCs (attachment as measure of viability) (HSCs): kill HSCs

CC[C@@]1([C@@H]2O[C@@H]([C@H]3O[C@@](O)(CO)[C@H](C)C[C@@H]3C)C[C@@H]2C)CC[C@H]([C@]2(C)CC[C@]3(C[C@H](O)[C@@H](C)[C@@H]([C@@H](C)[C@@H](OC)[C@H](C)C(=O)O)O3)O2)O1 [monensin]
effect on FITC-C1-3 association/binding to HSCs (human HSCs [1]): did not inhibit the total number of cells stained | effect on FITC-C1-3 uptake (nuclear FITC-C1-3 staining) (human HSCs [1]; 10 minutes preincubation): reduced uptake

ATDPENIIKEMPMC (listed as Homo sapiens)
effect on FITC-C1-3 association/binding to HSCs (human HSCs [1]): did not significantly inhibit

FITC-BSA: FITC labelled bovine serum albumin, specificity control [reference compound]
green fluorescence associated with hepatic stellate cells [2]: displayed cytoplasmic foci of fluorescence | green fluorescence associated with human hepatocytes (human hepatocytes): displayed cytoplasmic foci of fluorescence

YPFRLHQVYFDAPSC (listed as Homo sapiens) [C1-3 antigen]
effect on FITC-C1-3 association/binding to HSCs (human HSCs [1]): decreased FITC-C1-3 binding to HSCs in a dose-dependent manner

B1: C1-3 scAb: human single-chain antibody fragment with human Cκ domain and His tag, specific for synaptophysin peptide …; amino acid sequence SEQ ID NO 8 (protein)
scFv: MAEVQLLESGGGLVQPGGSLRLSCAASGFTFSSYAMSWVRQAPGKGLEWVSTIAASGPSTGYADSVKGRFTISRDNSKNTLYLQMNSLRAEDTAVYYCAKTTAKFDYWGQGTLVTVSSGGGGSGGGGSGGGGSTDIQMTQSPSSLSASVGDRVTITCRASQSISSYLNWYQQKPGKAPKLLIYSASRLQSGVPSRFNGSGSGTDFTLTISSLQPEDFATYYCQQLQRKPTTFGQGTKVEIKRGAAAPSVFIF
modifications: human Cκ domain and His tag; C1-3 amino acid sequence
fluorescence binding to HepG2 cells (HepG2 cells): not detected | cross-reaction with synaptophysin in rat HSCs [3]: did not cross-react | size of protein bound by scAb in Western analysis [4]: ~32 kDa | scAb bound to peptide-BSA relative to BSA alone ([5]; ELISA, FIG. 7): approximately 8 times | recognition of the peptide in ELISA ([5]; expressed scAb from XL-1 blue E coli): specifically recognised the peptide | fluorescence binding to COS-7 cells (COS-7 cells): not detected | association with HSCs: change of culture medium concentration of scAb (human HSCs [6]): reduction in culture medium concentrations | green fluorescence associated with hepatic stellate cells [2]: No detectable green fluorescence | green fluorescence associated with human hepatocytes (human hepatocytes): no associated green fluorescence | green fluorescence in hepatic stellate cell/hepatocyte co-cultures [7]: No significant green fluorescence

B2: C1: monoclonal phage-antibody clone from pan 3 of Tomlinson I+J libraries, subcloned to give C1-3 scAb (protein)
scFv: MAEVQLLESGGGLVQPGGSLRLSCAASGFTFSSYAMSWVRQAPGKGLEWVSTIAASGPSTGYADSVKGRFTISRDNSKNTLYLQMNSLRAEDTAVYYCAKTTAKFDYWGQGTLVTVSSGGGGSGGGGSGGGGSTDIQMTQSPSSLSASVGDRVTITCRASQSISSYLNWYQQKPGKAPKLLIYSASRLQSGVPSRFNGSGSGTDFTLTISSLQPEDFATYYCQQLQRKPTTFGQGTKVEIKRGAAA
binding response in monoclonal phage-antibody ELISA (target peptide-BSA): good binding response
